Biological target: T1, bovine serum albumin (bovine, UniProt P02769 25-607)
T1 construct: Control resin with an equimolar amount of BSA coupled; also called BSA; BSA-agarose resin
Test: affinity chromatography of murine liver extract on BSA control resin, SDS-PAGE and silver staining

T1 sequence (P02769 25-607 limits assumed): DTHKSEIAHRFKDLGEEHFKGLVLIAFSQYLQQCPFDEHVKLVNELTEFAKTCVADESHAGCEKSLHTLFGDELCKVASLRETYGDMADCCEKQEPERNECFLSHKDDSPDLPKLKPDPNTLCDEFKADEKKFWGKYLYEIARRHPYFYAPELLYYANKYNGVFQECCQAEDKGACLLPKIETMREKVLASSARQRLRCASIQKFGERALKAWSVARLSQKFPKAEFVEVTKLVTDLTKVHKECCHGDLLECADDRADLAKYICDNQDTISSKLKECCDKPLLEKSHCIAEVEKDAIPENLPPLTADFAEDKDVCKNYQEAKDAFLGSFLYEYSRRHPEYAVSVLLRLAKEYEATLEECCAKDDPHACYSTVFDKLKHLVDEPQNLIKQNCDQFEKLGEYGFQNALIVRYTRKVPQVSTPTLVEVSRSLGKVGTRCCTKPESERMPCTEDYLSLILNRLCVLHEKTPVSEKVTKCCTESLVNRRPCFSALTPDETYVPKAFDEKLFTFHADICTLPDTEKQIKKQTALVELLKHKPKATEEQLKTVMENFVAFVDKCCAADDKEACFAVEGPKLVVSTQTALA

binding result: no binding
B1: endogenous LIMP-2 from murine liver extract (75 kD GC binding protein) (receptor)
chain: MGRCCFYTAGTLSLLLLVTSVTLLVARVFQKAVDQTIEKNMVLQNGTKVFNSWEKPPLPVYIQFYFFNVTNPEEILQGEIPLLEEVGPYTYRELRNKANIQFGENGTTISAVTNKAYVFERNQSVGDPNVDLIRTINIPLLTVVDLAQLTLLRELIEAMLKAYQQKLFVIHTVHELLWGYKDEILSLVHIFKPDVSPNFGLFYERNGTNDGEYVFLTGEDNYLNFSKIVEWNGKTSLDWWTTDTCNMINGTDGDSFHPLISKDEVLYLFPSDLCRSVHITFSSFENVEGLPAFRYKVPAEILANTSENAGFCIPEGNCMDSGVLNISICKNGAPIIMSFPHFYQADEKFVSAIKGMHPNKEEHESFVDINPLTGIILRGAKRFQINTYVRKLDDFVETGDIRTMVFPVMYLNESVLIDKETANQLKSVINTTLVVTNIPYIIMALGVFFGLVFTWLACRGQGSMDEGTADERAPLIRT
notes: Identified by mass spectrometry as LIMP-2; N-glycosylated (75 kD, 54 kD after PNGase-F); also called 75 kD polypeptide

Source: US20100330617A1 (Sanofi, published 2010)
